Source: patent US20220378932A1 (published 2022)
Blank lines part the entries; values can stand above or below the binder they belong to.

Key:
[1] = biological target: T1, Fc fusion of the human GFRα1 extracellular domain (GFRα1:Fc fusion protein) (human, UniProt P56159 25-429, limits assumed); experiment: ELISA on captured GFRα1:Fc (format of FIG. 33), run with the CHO-derived fusion protein
T1 construct: extracellular domain; Bought (R&D Systems), captured on plates by a mouse anti-human IgG; also called GFRα1 ECD; GFRal; not shown: Fc part of the bought fusion, captured by a mouse anti-human Fc antibody
T1 sequence (looked up): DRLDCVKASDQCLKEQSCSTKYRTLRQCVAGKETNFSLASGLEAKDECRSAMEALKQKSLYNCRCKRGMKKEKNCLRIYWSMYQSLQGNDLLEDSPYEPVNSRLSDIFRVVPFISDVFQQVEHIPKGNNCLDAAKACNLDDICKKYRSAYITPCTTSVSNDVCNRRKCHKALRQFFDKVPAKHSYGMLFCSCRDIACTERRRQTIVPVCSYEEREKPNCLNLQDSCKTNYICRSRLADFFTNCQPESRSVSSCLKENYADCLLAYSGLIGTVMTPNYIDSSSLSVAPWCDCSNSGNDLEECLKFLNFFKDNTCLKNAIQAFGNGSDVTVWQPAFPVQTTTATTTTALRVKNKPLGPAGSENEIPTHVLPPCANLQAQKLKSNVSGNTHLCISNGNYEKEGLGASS

[2] = biological target: T1, Fc fusion of the human GFRα1 …; experiment: ELISA on GFRα1:Fc captured by mouse anti-human IgG, detection with goat anti-GDNF antibody
[3] = biological target: T2, human insulin receptor extracellular domain (HIR ECD) (human, UniProt P06213 28-956, limits assumed); experiment: competitive ligand binding assay: displacement of [125I] murine HIRMAb from plated HIR ECD; Scatchard analysis, high affinity site, nonlinear regression
T2 construct: extracellular domain

[4] = biological target: T1, Fc fusion of the human GFRα1 …; experiment: ELISA on GFRα1:Fc captured by mouse anti-human Fc antibody, detection with goat anti-GDNF antibody
[5] = biological target: T2, human insulin receptor extracellular …; experiment: ELISA on plated HIR ECD, COS cell-derived protein, detection with biotinylated goat anti-human IgG; non-linear regression

EC50 [1]: 1 nM
EC50 [2]: 1.03 nM
B1: recombinant human GDNF (ligand)
chain: SPDKQMAVLPRRERNRQAAAANPENSRGKGRRGQRGKNRGCVLTAIHLNVTDLGLGYETKEELIFRYCSGSCDAAETTYDKILKNLSRNRRLVSDKVGQACCRPIAFDDDLSFLDDNLVYHILRKHSAKRCGCI
notes: Bought (Peprotech); also called recombinant GDNF

Ki [3]: 0.63 nM
B2: chimeric HIRMAb (Examples 3 and 4) (antibody, human IgG1, kappa)
heavy: not shown
light: DIQMTQSPSSLSASLGERVSLTCRASQDIGGNLYWLQQGPDGTIKRLIYATSSLDSGVPKRFSGSRSGSDYSLTISSLESEDFVDYYCLQYSSSPWTFGGATKMEIKRTVAAPSVFIFPPSDEQLKSGTASVVCLLNNFYPREAKVQWKVDNALQSGNSQESVTEQDSKDSTYSLSSTLTLSKADYEKHKVYACEVTHQGLSSPVTKSFNRGEC
notes: also called chimeric form of the HIRMAb; product of clone 400

binding result [4]: no binding
EC50 [5]: 0.5 nM
B3: chimeric HIRMAb (Examples 15 and 16) (antibody, human IgG1, kappa, V domains shown)
VH: QVQLQQSGPELVKPGALVKISCKASGYTFTNYDIHWVKQRPGQGLEWIGWIYPGDGSTKYNEKFKGKATLTADKSSSTAYMHLSSLTSEKSAVYFCAREWAYWGQGTLVTVSA
VL: DIQMTQSPSSLSASLGERVSLTCRASQDIGGNLYWLQQGPDGTIKRLIYATSSLDSGVPKRFSGSRSGSDYSLTISSLESEDFVDYYCLQYSSSPWTFGGGTKMEIKR
notes: also called COS cell-derived chimeric HIRMAb; CHO-derived HIRMAb
